Patent US20250215089A1 (HARBOUR BIOMED SHANGHAI, published 2025)
Values joined by “and” are separate entries in the source; they are usually repeats but may differ in a detail not shown here. Equal entries are not always repeated.

Assays:
[1] = biological target: T1, human CD40 (human, UniProt P25942 21-277); experiment: FACS, Raji cells
T1 construct: whole, on cells; also called hCD40; TNFRSF5
Description: (§1) The cells were incubated at 4° C. for 1 hours in the dark. After the incubation, the cells were rinsed twice by adding pre-chilled PBS at 100 μL/well, and centrifuged at 500 g at 4° C. for 5 minutes, and the supernatant was discarded. Then, a fluorescent secondary antibody (goat anti-human IgG (H+L) secondary antibody, Alexa Fluor® 488 conjugate, Invitrogen, #A11013, 1:1000 dilution) was added at 100 μL/well, and the cells were incubated at 4° C. for 30 minutes in the dark. The cells were washed twice with pre-chilled PBS at 200 μL/well, and centrifuged at 500 g at 4° C. for 5 minutes, and the supernatant was discarded. Finally, the cells were resuspended in pre-chilled PBS at 200 μL/well. The fluorescence signal values were read using a BD FACS CANTOII flow cytometer or ACEA NovoCyte flow cytometer, and the data were processed and analyzed using FlowJo v10 software (FlowJo, LLC).
Data processing and graphical analysis were performed using GraphPad Prism 8 software. The binding curve of the antibody to the target cell and parameters, such as EC₅₀ value were obtained by four-parameter nonlinear fitting.

[2] = biological target: T1, human CD40; experiment: FACS, Raji cells; remark: listed apart in the source
Description: as §1

[3] = biological target: T1, human CD40; experiment: cell-based or functional assay
[4] = biological target: T1, human CD40; experiment: FACS, MDA-MB-231 cells
[5] = biological target: T1, human CD40; experiment: cell-based or functional assay; remark: listed apart in the source
[6] = biological target: T1, human CD40; experiment: FACS, CHO-K1/hCD40 cells
Description: as §1

[7] = biological target: T2, cynomolgus monkey CD40 (cynomolgus monkey); experiment: FACS, CHO-K1/cyCD40 cells
T2 construct: whole, on cells; also called cyCD40
Description: as §1

[8] = biological target: T3, cynomolgus monkey PD-L1 (cynomolgus monkey); experiment: FACS, CHO-K1/cyPD-L1 cells
T3 construct: whole, on cells; also called cyPD-L1
Description: Specifically, the cells expressing PD-L1 were digested and resuspended in PBS buffer containing 2% BSA. The cells were adjusted to a cell density of 1×10⁶ cells/mL, respectively. The cells were seeded in a 96-well V-bottom plate (Corning, #3894) at 100 μL/well, and the antibody to be tested at 2×final concentration with 4-fold concentration gradient dilution was then added at 100 μL/well. The cells were incubated at 4° C. for 2 hours in the dark. After the incubation, the cells were rinsed twice by adding pre-chilled PBS containing 2% BSA at 100 μL/well, and centrifuged at 500 g at 4° C. for 5 minutes, and the supernatant was discarded. […] The cells were washed twice by adding pre-chilled PBS containing 2% BSA at 100 µL/well, and centrifuged at 500 g at 4° C. for 5 minutes, and the supernatant was discarded. Finally, the cells were resuspended in pre-chilled PBS buffer containing 2% BSA at 200 μL/well. The fluorescence signal values were read using a BD FACS CANTOII flow cytometer or ACEA NovoCyte flow cytometer, and the data were processed and analyzed using FlowJo v10 software (FlowJo, LLC).

T1 sequence (P25942 21-277): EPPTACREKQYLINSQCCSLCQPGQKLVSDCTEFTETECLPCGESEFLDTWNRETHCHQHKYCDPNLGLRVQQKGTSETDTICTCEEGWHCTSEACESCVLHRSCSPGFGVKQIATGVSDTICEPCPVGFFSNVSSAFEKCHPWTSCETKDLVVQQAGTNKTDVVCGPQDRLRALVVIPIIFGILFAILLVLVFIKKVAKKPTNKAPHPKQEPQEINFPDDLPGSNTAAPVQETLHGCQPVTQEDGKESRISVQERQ

B1: Selicrelumab (antibody, human IgG2, kappa, V domains shown)
VH: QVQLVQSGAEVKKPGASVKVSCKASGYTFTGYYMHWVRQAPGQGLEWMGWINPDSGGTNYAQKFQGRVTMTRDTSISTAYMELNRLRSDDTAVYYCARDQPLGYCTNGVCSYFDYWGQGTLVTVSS
VL: DIQMTQSPSSVSASVGDRVTITCRASQGIYSWLAWYQQKPGKAPNLLIYTASTLQSGVPSRFSGSGSGTDFTLTISSLQPEDFATYYCQQANIFPLTFGGGTKVEIKR
notes: Positive control anti-CD40 antibody; also called PR001028
In the case of B1, the EC50 [1] is reported as 0.484 nM, the “Maximum MFI” value [1] is reported as 2450 MFI and the EC50 [2] is reported as 3.02 nM. The “Maximum MFI” value [2] was 5170 MFI, the “EC50, HEK293-hCD40-NFκB reporter, crosslinked (CHO-K1/hCD32B)” value [3] was 0.0413 nM and the “EC50, HEK293-hCD40-NFκB reporter, uncrosslinked (CHO-K1)” value [3] was 0.163 nM. For the same binder, the “Fold (EC50 in the absence of crosslinking/EC50 in the presence of crosslinking)” value [3] was 3.94 fold, the EC50 [4] was 0.936 nM and the “EC50, HEK293-hCD40-NFκB reporter, + CHO-K1” value [5] was 0.183 nM and 0.241 nM. For the same binder, the “EC50, HEK293-hCD40-NFκB reporter, + CHO-K1/hPD-L1” value [5] was 0.155 nM and 0.205 nM, the EC50 [6] was 2.58 nM and the “Maximum MFI” value [6] was 13900 MFI. For the same binder, the EC50 [7] was 4.74 nM, the “Maximum MFI” value [7] was 53400 MFI and the “Maximum MFI” value [8] was 94 MFI.
